The subject of the data set is Saccharomyces cerevisiae. Kind of data set: transcriptional activation domain activity (GFP:mCherry ratio, weighted mean of sorted bins, harmonized to initial dataset scale) (arbitrary fluorescence ratio units); higher = stronger transcriptional activation. Particulars: beta-estradiol 1 µM; induction time 4 h. In short, it runs like this: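 After a 1:5 dilution into SC with 1 uM beta-estradiol and 4 hours at 30 °C, yeast diploids carrying a GFP reporter and URA3-integrated barcoded tiles were sorted into 8 bins by GFP:mCherry ratio. The tiles were fused to an estradiol-inducible synthetic transcription factor. Barcodes were sequenced, tiles below 50 reads were discarded, and activation activity was taken as the read-weighted mean of bin median fluorescence, averaged across barcodes and linearly mapped onto the initial dataset scale.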

As to “VLCTCVPRQLVEPLVKLRKIHRRLAMTWIAALDYFASYRLVPFIRMIMELESV”, the “transcriptional activation domain activity” value came to 44700. “VLDLVCIKFLSLFTFYIFLLLYLSIFQIICFFLFPFLFLFFPSCPLRRFLFSY”: the “transcriptional activation domain activity” value was found to be 47000. For “VLEQLNLINHFYQFSLKFFLDIFEYVLRQNPNLQNVTDHHARREILFNDIFLV” the value was 33600; for “VLFAVAVYMNHVPTAILWMSCVSAKLFSFCSQTFFVIRVYFLPWRFDLVFIPL”, 37600. For “VLFSQRRRWINSTVHNLLELVILPELCGFCCFSMRFFVFIDLLGTILTYLVVV”, the “transcriptional activation domain activity” value was found to be 61100. Turning to “VLGAAKCIPFLRWPTLHLSILLSWWDADTLVRLLKALAELHLRSITITLKIGI”, the “transcriptional activation domain activity” value was 55700. “VLGCAKIGVVLLSLWHMFHFAHYINVSPTEIFCISPVLGSWSWETLCFMMTVV”: the “transcriptional activation domain activity” value worked out at 49600.

Regarding “VLGELSRFAGGPEETPIHIGTLYYLNVHTAPPYFWQRCQALLYRNTLLLSWIA”, the “transcriptional activation domain activity” value amounted to 52200. In the case of “VLGNLLCAILFRNELWMRFLYLVFIYGLRGVSWAPLSIKYAATSILQHVGGIH”, the “transcriptional activation domain activity” value came to 29200. On to “VLGQISTVLIQYLFNPAYDLLSYCFNWYLDQCIVYLLLSIILSAPTIGAFVYV”, for which the “transcriptional activation domain activity” value worked out at 46400. For “VLGSEGSNLRCTRYLVVGGPPAMGREVQRFRECECTVMRMTVLIRGAVMWGCR” the value was 57500. For “VLHESCGSPVFLLFSCFILLSLWRIVGRISLSILLVLRSLFCCYFPSLLFWLW” the value was 36900; for “VLHVLILHLPCCPSPNFLLAPDTTLPLSTLLWYEFSRTLFPVLLFYLPAFLIS”, 72100; for “VLICAHGQQQMGSGVFLGQDLLSRARMESIFCRSTVPVIVITTAYCSGLWAVP”, 55900.

“VLKALWSFAYTFGLFIFCNGSIYYFVARIFGSYYRVLDSPIVGFRWSNIHLFL”: the “transcriptional activation domain activity” value worked out at 57100. Consider “VLLCQMEDAVLSSSFAIKANTAMSQNTAEEFFNISEEEALNQLLENNNFDAFW”, for which the “transcriptional activation domain activity” value stood at 140000.

“VLLFLFVWRWGRRAFWQLRGRGIIGSVVELYVNIRRILYGYFLRAPGVRNKVQ”: the “transcriptional activation domain activity” value was 44100. Take “VLLHLNRYMSIFGNLQILILVGLTSCCRTSHIYHMVLLLVQQHTLHRRYVLHA”: the “transcriptional activation domain activity” value stood at 69400. For “VLLILGLGNPLCSRPVKLFEWMIAALVFAVLICMTMIIVKVNVVWSQAFNGFV” the value was 45600; for “VLLITLILSSRINITPVVHVNPSFSTVHLIIIPHFLCNIITLLIYFIVCWGST”, 56800. For “VLLLKTLLSPVVVPDLDDHSLVLKQFKTFHWQRKNLTSVINILAQALYSLFAA” the value was 27800. As for “VLLLLYLAFRAQTIEISIPKAKFCCYDTRVRILVPSRGYRSTYMCRISLLLGC”, the figure is 19900; as for “VLLLVIFACAIVYLKSLVYSPSPFPTLIACYMSHSNRRYLSVMYGVVLVHQIT”, 75600. Regarding “VLLQNLCRMVITRLGDWTLFKAFVLCCCLYRLSFFHDLFLFLYTFSFPLLCFT”, the “transcriptional activation domain activity” value worked out at 57100. For “VLLVLPLFFSFSLYHPLRLHPFRLFFFFFFFFLCIFFYFSPFPSFSCHFLFSS” the value was 59100; for “VLLVVMFFGVLHKRNATHLWNLLYFQGLFWILAATMTELPSVVCLPYSPPLRC”, 57400; for “VLLYFCSGYMFAILITVAYILLQFLVPLITDAHVLFFEWTFFEFLFRIWFLLW”, 79500.

Regarding “VLLYTGLLKFFNLGVLTATLVEVCKRPWRIRMANGRVDRMKYFNLVFGIVWEC”, the “transcriptional activation domain activity” value amounted to 58700. As for “VLMDERISLKNDLSSQDVALFLSLASSVASGSLLLRPPNVWIVVWTYLHRRHG”, the figure is 66900; as for “VLMLIVSNLRLMIENFKKYGVLICLSCHDYRRQDVIYGSILYLLVPCHLFVAY”, 41900; as for “VLPPLLLAILFAVLPFILRGLAWYECIPRYSLISVSVYRRFFLFLLIHGFLIV”, 65300. As for “VLPVRFPKDCDQVFIACAVDCAELWRPGWKANIWVISHRRMIVSTVHIRHLSR”, the figure is 48200; as for “VLQILAFAMFIICTLTLQLRLRSNPPVQCVAGVVTHYRRYFIALYCTSGLFLI”, 56600; as for “VLRLFNDVWAVTLTQLSILALVGVYLILPYYNVLQCCLIRQDVVLLYLPAFLV”, 66500. For “VLRMFFVSQANTFVILSLLGLCLPSRALPAAFGFSPSYAPLLIRLYLAQTLFT” the value was 25800; for “VLRWGDTNTLPFVHIMMVFIHKMAQYAAAMSYLEQVFPWKLTMVMLNYHLTSC”, 68500. Turning to “VLSDKEKHRVASQHLNGESSPQLVPHSHHQPHSDTDEEDWESIGAASLRNNSL”, the “transcriptional activation domain activity” value came to 35500. For “VLSKKTIDKVLRLIRKLDWNDPQVVQALHKVFSKVWKIKFSHISLLAMLIYDL” the value was 92000; for “VLSRVTGLEHKQMCKIILGLIIDLLLPSGGDTSRILRTVRALLDFLYLAQLPS”, 73900. For the sequence “VLSSSLCFPLPPLSPPFLPSLCFPLPPFFPFPPFPLFPPFLPFPLFPLCFPLP”, the “transcriptional activation domain activity” value was determined as 48300. As for “VLTLTFNDGKKHEDLSKQLLFVIHDIFSCDQNSPGYVLLRLLRSFLVLDVYMS”, the figure is 65000; as for “VLVVLCLRFFIFGIFGYILGFWMQHLLPYTPLSLSFMCLLFCLSFHLDISPSP”, 45600; as for “VLVVVVALPVVAVMVIMVVVVVVVVVVAIIGGGGWWMWLGLWLRLLIEMDVGA”, 32900. For the sequence “VLYGRLRVKAQLLECALWNISAWLSLPDVERKSYTMLFTTLGGLYDMTCRIYL”, the “transcriptional activation domain activity” value turned out to be 53000. For “VLYPLWPLKMRQGVYYLSWGFLCLLGLFFLMAIFRVILFCITYFVVSPGLWLF” the value was 34400. “VLYSSLITIFTAFYWNVASTSSVQILALLLPYTHPNIAHASTIRPFLIYALFT”: the “transcriptional activation domain activity” value is 66700. For “VMFHGKQMKNFLIDINSFTNQQQQAQDNPSFLPLDIEQSSYDLSEDAMSYPII” the value was 115000; for “VMHALWNRWIFFNRSLFLGNQHEGVRAFITEYWRMIRLAAGWDVLRWWLLILC”, 51800; for “VMLNQQILYFCLRILCMHAYAQFRMEDSDIWRMVEKKKHIYNRLIELVYTLCS”, 46300. For “VMLSFFICRPILRLLHVFHISSPIYLYLPFVPLHLLIYPSFLIDVGLLSMVLA” the value was 65200. Consider “VMMAIIYLMVIFTFIIGVVAGVVPFLYFLSESHFLMCRKASETAGFLCLMFAA”, for which the “transcriptional activation domain activity” value was determined as 33700. As to “VMPTWLWMPLLLVANFFCRFFLFHLIICSYIYPLLYVQLMWVFWFIWRGVFSF”, the “transcriptional activation domain activity” value was found to be 55700.

Turning to “VMSYLLCVALVFPVMIVLMLLGCVWFLIVLFFMLGVLIFIMCIGPLYVILKAP”, the “transcriptional activation domain activity” value came out at 10200. With “VNDAARILLAGLLEIKYTIREHLKSMFGSPWIIMYWRNWSGPLNITLELLGKC”, the “transcriptional activation domain activity” value amounted to 45200. For “VNDIYDSSRSRACNACRNSKVRCEQPRPDHPCKRCAKARRECVSSTRGHKRRR” the value was less than 6570. For “VNDNSTGSTDSTGSTGNKNKKNNNNSDDVLPFISESPFDMNQVTNFFSPGSTG”, the “transcriptional activation domain activity” value came to 38600. Regarding “VNFLGLMYAPLFVLSNFGAANCQHNALLFKFNMHAFFLCFDLFLLYKTWVVAQ”, the “transcriptional activation domain activity” value stood at 49900.

Take “VNGDLFEADGCTIQWLLDNSHGLIFAVAYPRILTLTYVPALLQTIKTLFLSLF”: the “transcriptional activation domain activity” value was 44000. On to “VNGGGESDEDVKSKKDSKRKGKAIKGEDEEEEEEKPKANSKRGRKKVEENGAV”, for which the “transcriptional activation domain activity” value turned out to be 44700.

Consider “VNHIVAYITLGIVGFCFLSYITLTLMPLIFHDCPYYTPFTSLLWYSAQIIPFF”, for which the “transcriptional activation domain activity” value came to 33600. In the case of “VNKSGSTYGEELSPKLDSSLVNDTTSLLLPQQPVFVSENVGSEFSSLNEFLSM”, the “transcriptional activation domain activity” value was determined as 108000. On to “VNLHRARLRSCLDIIHLHIALGSTKRGLERVFELRRMLVSLLALHPFFRPTST”, for which the “transcriptional activation domain activity” value came out at 46100.

Consider “VNSHGYKHISNLDELDDLLSLTYSDNNLLSASNNSDFNNSNNGIINTADTQNS”, for which the “transcriptional activation domain activity” value turned out to be 106000.

On to “VNYHLAMRYFMRYLFTQDLLPLLLAAKEQCQQAHVMCVQGAGFGLRIRTDDIG”, for which the “transcriptional activation domain activity” value was determined as 45000. Consider “VPGEVSEAEANGETKAEDAPAAEGDAAKPKKKKKKAAKKAKSANGEATEGAPA”, for which the “transcriptional activation domain activity” value is less than 6570. For “VPGEVTDAEANGEVKAEDADGAEKTKPKKKKKSKAAKAKAKAEGAVEGATAAV” the value was 52900; for “VPGEVTEAEANGEAPKAEDGAEDGEAAKPKKKKKSKAARKAKKAAAASTEDGA”, 21600.

For “VPLCIAVLLLLAPHPSILHVLLNYHYLTLHSTRYFLAHLFVIYTISFLAFSSL”, the “transcriptional activation domain activity” value came to 47400. As to “VPLCVAVLLLLAPHPSILHVLLNYHYLTLHAPGYFVVHLLIIYALYFLAFSSL”, the “transcriptional activation domain activity” value was 34000. For “VPLEEYIPSDIDGVGRVTDKSSLVYDWPFDESIERNFSTTATAATGESKFDIN” the value was 68100; for “VPLHISLPSLVIDVRVIGEPGLYFADLGCCYCLDAELQITHIHGLFLHVVFIL”, 56600; for “VPLLDSNFISLNSNPLLYIQNQNPNSNSSVKVSRSQTFEPSKELIDLVFPWLS”, 122000. As for “VPLMQFILFPPFDWLVLVASPHNPILTSEFYNHLWSLIKLITLCLPLPLFGTL”, the figure is 61500; as for “VPLPELEPKVVLELRAVVVQVKQLDEEPPLDLEQRVELVPTGQLEQRAAPVLR”, 35000.

For the origin of these results see the supplement of paper PMC12636428.
